Assay results taken from the supplement of paper PMC6755084.

B1: F1*; a variant is named by its letters at N, in order (parent)
chain: GAGACCGCAACTGAAAAGTTGTTATCNNNNNNNNAANNNNNTTNGNNGGGTTGAAGTTCTGCACGTAGAAGCAAAAGGC
B2: F1*; a variant is named by its letters at N, in order (parent)
chain: GAGACCGCAACTGAAAAGTTGTTATCACTTGTCGNANNNNNNTTNGNNNGGNTNNNGTTCTGCACGTAGAAGCAAAAGGC
B3: F1*; the commonest letter at each place (parent)
chain: GAGACCGCAACTGAAAAGTTGTTATCACTTGTCGTAAGACACTTTGGATGGGTTGAAGTTCTGCACGTAGAAGCAAAAGGC

Variants of: B1
Experiment: fraction ligated after 30 min (ligated reads / total reads); higher = more ligase activity
Settings: with F1*sub RNA substrate (template-directed ligation), 42 °C
Protocol: (§1)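 Chip-synthesised pool of F1* ligase ribozyme variants (all single and double substitutions, single, double and triple deletions in the catalytic core and GAA bulge, plus designed variants) was transcribed with T7 and reacted as a pool with excess substrate F1*sub for 30 min at 42 C in 50 mM EPPS pH 8.5, 25 mM MgCl2. Ligated and unligated bands were separated by PAGE, barcoded by RT and deep sequenced; fraction ligated = ligated reads / total reads per variant, relative activity = FL / FL of wild type (0.826). Sequences are the DNA template of the ribozyme.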

Variant	fraction ligated
ACTTGCGTACACTGAT	0.837
ACTTGTGTGACACTGT	0.0697
ACTTTCGTGACATGAT	0.832

Variants of: B2
Experiment: as above
Settings: with F1*sub RNA substrate (template-directed ligation), 42 °C
Protocol: as §1

Variant	fraction ligated
TAGACATGATGTGAA	0.829
TAGACACTGATGTAA	0.834
TAGACACTGATGTAT	0.762
TAGACACTGATGTAC	0.56
TAGACACTGATGTAG	0.773
TAGACACTATGTGAA	0.782
TAGACCTGATGTGAA	0.839
TAGACACTGAGTGAA	0.168
TAGACACTGATGTTG	0.0257
TAGACACTGATGTTC	0.0084
TAGACACTGATGTTA	0.834
TAGACACTGATGTTT	0.0147
TGACACTGATGTGAA	0.849
TAGACACGATGTGAA	0.799
TAGACACTGATGTCT	0.0184
TAGACACTGATGTCC	0.0263
TAGACACTGATGTCG	0.0205
TAGACACTGATGTCA	0.792
TAGCACTGATGTGAA	0.827
TAGACACTGATGTGA	0.848
TAGACACTGATGTGG	0.352
TAGACACTGATGTGT	0.349
TAGACACTGATGTGC	0.802
TAGACACTGATTGAA	0.703
TAACACTGATGTGAA	0.832
TAGAACTGATGTGAA	0.821
TAGACACTGTGTGAA	0.354
AGACACTGATGTGAA	0.843

Variants of: B3
Experiment: as above
Settings: with F1*sub RNA substrate (template-directed ligation), 42 °C
Protocol: as §1

Variant	fraction ligated
A24G C26T	0.728
T45G G46C	0.0668
T35C A56T	0.796
C26T T45A	0.779
G38C T49C	0.0586
T23G C33G	0.848
G50A A56T	0.0351
A36C G55C	0.787
T25G A39G	0.759
G38C A56T	0.813
T32G A57C	0.82
T30C A57C	0.777
T30C A57T	0.769
C33G G50A	0.253
T44C A56C	0.791
T29A A48T	0.801
C28G C33T	0.786
C28G C33G	0.505
A37C G55C	0.826
G34C G38A	0.813
T43C G47T	0.446
T44C A57G	0.802
C33G C40T	0.825
A27C T44G	0.798
A37T G46T	0.784
A37G G50C	0.45

Variant	fraction ligated
T23C C33A	0.786
C28A T29A	0.798
C42G G46T	0.793
G31A G38C	0.798
T25A G46C	0.137
A37G G46T	0.806
G46C A56G	0.315
T30C C42T	0.794
T29G A56G	0.749
G34T G38C	0.83
C26A T32A	0.48
T44G A57G	0.791
A24C C26A	0.417
T43G G46T	0.787
A37T C40T	0.842
T25A A27C	0.266
T35A T45C	0.788
A41C A48G	0.783
T23A T35C	0.811
A24G A36G	0.813
C33G A56T	0.867
C42G A57C	0.818
A37G A41G	0.822
T23A T29G	0.82
T23A T29A	0.826
C26A T30C	0.781

Variant	fraction ligated
T25C T43C	0.731
G34A T49A	0.786
T29G T32G	0.832
T25A C33G	0.229
A27G T30G	0.846
T35C G47C	0.213
C26T G47C	0.0296
C40T G50C	0.357
A27G	0.852
G31A G55C	0.205
T29C T32C	0.764
T30C G46C	0.759
C33G A48C	0.727
C33G A48T	0.0603
T30C G38C	0.78
A27C C28A	0.807
C33A T35A	0.879
T25C C40G	0.378
T35A T43C	0.794
T35A T43G	0.807
C28A A36G	0.795
G34A A39T	0.818
A39G G46A	0.843
T23C T49C	0.715
G34A G47A	0.805
T35C A41C	0.777

Variant	fraction ligated
G34A T35A	0.848
T25A G34A	0.724
T25A A36C	0.684
A24C T25C	0.793
T43A A57G	0.793
T25G T49C	0.527
T32G A41C	0.794
T30C T43A	0.809
G31T T44G	0.764
C26T A48T	0.0105
A41C G50A	0.28
A48T T49A	0.565
A37T T43A	0.848
G34A G55T	0.811
T32G A36G	0.813
A24G G31C	0.181
A24G G31T	0.331
T49G G55C	0.136
T23C T35C	0.818
G34T G55A	0.835
G46T G50T	0.148
C26T A37C	0.841
T44A G46C	0.793
T30A T44A	0.855
C28A A39G	0.798
T32C C33T	0.849

Variant	fraction ligated
T30C G34T	0.787
T32A C40T	0.806
C33A C40A	0.853
A24G T45A	0.22
T29C G46C	0.775
A24T C28A	0.492
T35G T43C	0.807
T32G T44G	0.821
C28T T35G	0.785
A37G T44A	0.839
G38C C40A	0.811
A36G T45C	0.614
T35C A39G	0.833
C40G G55A	0.808
T45G T49G	0.0893
A27T A37C	0.818
C42A T44G	0.805
G31A T45G	0.137
C42T T43C	0.828
C42T T43G	0.818
T23C G34T	0.804
G38T C42G	0.845
C28G T35A	0.814
G31T G55T	0.759
A27G C42G	0.812
C40A T44G	0.779

Variant	fraction ligated
A27T C42G	0.819
T30G A37T	0.86
A37G T45C	0.803
C26G G50A	0.0221
C42A	0.84
C42G	0.854
T23A	0.837
T32A T43A	0.831
T29G C40A	0.84
T23C T44A	0.817
G31A A48G	0.254
T29A A41T	0.827
T43A A56T	0.81
C26T T29C	0.848
C26T T30G	0.861
C28G G47A	0.763
C40A G55T	0.787
T23A A39C	0.789
A24G G46T	0.621
T43G G50C	0.273
T43G G50A	0.311
T23G T29A	0.824
A36C G38A	0.846
C26T T35A	0.854
G50A G55C	0.0427
A36T A39G	0.842

Variant	fraction ligated
G31A A56G	0.687
C33G T43A	0.814
C42T G47A	0.823
T43G T49C	0.726
T29C T30A	0.796
G55A A56T A57T	0.161
G38C G55T	0.768
T25C G38T	0.747
T29C G50C	0.112
G50C G55A	0.112
G31T A41G	0.761
A24T A48T	0.00859
A24T A48G	0.214
A27T T45G	0.16
C28G A41C	0.751
T23A G38T	0.795
A24C A41G	0.608
T23C G31A	0.619
C33A G34T	0.843
T32G C33A	0.843
T32G C33T	0.856
C40A G47T	0.341
T23G G34C	0.799
C26G C40A	0.248
G34C T35C	0.835
T49C G55A	0.335

Variant	fraction ligated
C26G G31A	0.165
C26A C40T	0.814
C26A C40G	0.793
G34A A36G	0.846
A41G T49G	0.739
A37C A39G	0.833
T30C T32G	0.809
T30C T32A	0.817
T29G C33A	0.85
A27G G31C	0.798
T23G A36C	0.882
T23G A36T	0.841
T23A T30A	0.797
G34C C42G	0.84
A36G G47T	0.0714
T25G G50T	0.436
T23A A56C	0.653
T23C C40G	0.766
A39C G46C	0.764
A39G	0.839
A41T	0.837
T49G A57T	0.706
G47T A48C	0.0847
C40T T49C	0.38
T25G G55T	0.132
T25G G55C	0.0471

Variant	fraction ligated
A39C C40G	0.811
A24T T30G	0.768
A36G G50C	0.117
G34T C40G	0.811
G34T C40T	0.809
T30C C40T	0.808
T29G G38T	0.855
A27G G38T	0.824
T45G A56G	0.775
C33A G38T	0.86
T45C A56T	0.473
T23C A37C	0.821
T25A T43C	0.286
T25A T35C	0.761
C28T A39G	0.796
C26A C33A	0.721
C26A C33T	0.829
C33A A41C	0.818
T32A T45G	0.0954
A36C G46C	0.784
G47C A48C	0.168
G38T G46A	0.801
C26G T32G	0.125
C26G T32A	0.238
T35A G47T	0.398
G34T A39C	0.779

Variant	fraction ligated
A24G T30A	0.745
A36T A57T	0.824
A37C G46T	0.785
A37C G46C	0.795
T29G T30C	0.828
C26A T44C	0.782
A37C C42T	0.857
T45C G47A	0.366
A39C A56C	0.746
T23G T44G	0.86
G38T A41T	0.798
A41G G55C	0.663
G34T T35A	0.854
C28A A56T	0.784
C26T G50T	0.238
T35A C40T	0.834
C33A T44G	0.821
C33A T44C	0.84
A37T A57T	0.838
A37T A57C	0.854
T25C T45A	0.295
G31A C33T	0.829
T29A C33A	0.852
A27C G46C	0.782
C26A G31C	0.226
C26A G31A	0.261

Variant	fraction ligated
C28G T45C	0.337
A24C T43A	0.625
A39C T43G	0.79
A39C T43A	0.822
G55T A56C	0.014
G31A G46A	0.845
T25G G34A	0.77
G47C T49C	0.0543
G46T A57G	0.795
T23A A48C	0.727
G31T G38A	0.802
C26A A57C	0.717
T35G	0.839
A36T T45C	0.783
G34C A36T	0.832
T45G G55C	0.0194
A37T G55T	0.828
C26G A36G	0.767
C28A G31A	0.84
C40T T44A	0.831
C33A T45A	0.803
T30C C33T	0.84
T29G A57T	0.811
G31A A41C	0.74
T25A A48C	0.752
T25A A48G	0.459

Variant	fraction ligated
A37C A57C	0.819
A37C A57G	0.838
T25G A37T	0.808
A27C G55T	0.792
G55A A56G A57G	0.338
A41G A48G	0.76
T29C G55T	0.765
G46C G47C	0.0992
C26A A36C	0.79
A27G C28G	0.777
G34C G50A	0.17
C28G G50T	0.594
A27C A37C	0.793
A27C A37T	0.82
A27T A57G	0.794
T35A G46T	0.783
A27G A37G	0.848
